From patent US7105647 (WISCONSIN ALUMNI RESEARCH FOUNDATION, dated 2006)

Assays:
[1] = target: T1, AH receptor nuclear translocator (ARNT), full length (human, UniProt P27540 1-789); experiment: yeast two-hybrid with full-length ARNT, lacZ reporter
T1 construct: Full length: in vitro translated, expressed in yeast (PL574) or transfected; Endogenous ARNT in the Hep3B experiment; also called huARNT; hARNT
Description: (§1) This plasmid was designated PL371, and subsequently was digested with NotI and XhoI, this fragment cloned into the corresponding sites of pSGBCU11. This clone was designated PL574. The LexAMOP fusion protein constructs were cotransformed with a yeast expression vector containing the full length AHR or ARNT into L40, a yeast strain containing integrated lacZ and HIS3 reporter genes. As controls, LexAAHR and LexAARNT were cotransformed with AHR and ARNT. The strength of interaction was visually characterized by X-Gal (5-bromo-4-chloro-3-indolyl-(-D-galactoside) plate assays, performed after three days growth on selective media (Bohen et al, Proc. Natl. Acad. Sci. USA 90: 11424–11428, 1993). To provide quantitation of the interaction strength, multiple colonies from yeast harboring each bHLH-PAS combination colonies were grown overnight in liquid media. Liquid cultures were grown for 5 hours, and assayed for lacZ activity using the Galacto-Light chemiluminescence reporter system (Tropix, Bedford, Mass.). To determine the effect of AHR agonists on these interactions, yeast were also grown on plates or in liquid culture with and without 1 μM βNF (Carver et al., J. Biol. Chem. 269: 30109–30112, 1994).
(§2) 2. Interaction of MOPs with the AHR and ARNT in vivo; Yeast two-hybrid experiments. […]

[2] = target: T2, human aryl hydrocarbon receptor (AHR), full length (human, UniProt P35869 1-848); experiment: yeast two-hybrid, lacZ reporter, with and without 1 µM βNF
T2 construct: Full length in yeast (PRSAHR) and in the Hsp90 co-IP (huAHR); also called huAHR; Ah receptor
T2 sequence (looked up): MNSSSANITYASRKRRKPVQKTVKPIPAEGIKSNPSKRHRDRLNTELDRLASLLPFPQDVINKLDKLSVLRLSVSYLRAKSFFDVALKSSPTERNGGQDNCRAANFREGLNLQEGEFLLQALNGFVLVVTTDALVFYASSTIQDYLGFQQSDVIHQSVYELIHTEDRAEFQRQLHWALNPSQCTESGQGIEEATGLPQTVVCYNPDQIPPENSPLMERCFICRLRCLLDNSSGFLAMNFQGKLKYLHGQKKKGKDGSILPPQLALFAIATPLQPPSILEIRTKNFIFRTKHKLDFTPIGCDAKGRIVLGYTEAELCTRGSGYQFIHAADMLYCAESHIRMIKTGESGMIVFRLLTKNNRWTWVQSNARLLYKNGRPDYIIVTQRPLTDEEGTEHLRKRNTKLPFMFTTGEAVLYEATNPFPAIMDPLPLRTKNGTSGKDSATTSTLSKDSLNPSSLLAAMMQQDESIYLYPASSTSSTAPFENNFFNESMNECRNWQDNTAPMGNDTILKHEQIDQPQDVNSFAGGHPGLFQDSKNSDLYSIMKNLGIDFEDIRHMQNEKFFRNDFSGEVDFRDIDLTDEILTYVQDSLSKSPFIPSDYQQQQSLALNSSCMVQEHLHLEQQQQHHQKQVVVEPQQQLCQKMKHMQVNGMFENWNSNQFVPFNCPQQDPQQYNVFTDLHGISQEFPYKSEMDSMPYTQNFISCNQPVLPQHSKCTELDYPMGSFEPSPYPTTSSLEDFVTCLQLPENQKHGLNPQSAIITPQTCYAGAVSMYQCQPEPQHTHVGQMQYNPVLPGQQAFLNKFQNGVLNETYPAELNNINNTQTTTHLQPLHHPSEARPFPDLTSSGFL
Description: as §1, §2

T1 sequence (P27540 whole entry): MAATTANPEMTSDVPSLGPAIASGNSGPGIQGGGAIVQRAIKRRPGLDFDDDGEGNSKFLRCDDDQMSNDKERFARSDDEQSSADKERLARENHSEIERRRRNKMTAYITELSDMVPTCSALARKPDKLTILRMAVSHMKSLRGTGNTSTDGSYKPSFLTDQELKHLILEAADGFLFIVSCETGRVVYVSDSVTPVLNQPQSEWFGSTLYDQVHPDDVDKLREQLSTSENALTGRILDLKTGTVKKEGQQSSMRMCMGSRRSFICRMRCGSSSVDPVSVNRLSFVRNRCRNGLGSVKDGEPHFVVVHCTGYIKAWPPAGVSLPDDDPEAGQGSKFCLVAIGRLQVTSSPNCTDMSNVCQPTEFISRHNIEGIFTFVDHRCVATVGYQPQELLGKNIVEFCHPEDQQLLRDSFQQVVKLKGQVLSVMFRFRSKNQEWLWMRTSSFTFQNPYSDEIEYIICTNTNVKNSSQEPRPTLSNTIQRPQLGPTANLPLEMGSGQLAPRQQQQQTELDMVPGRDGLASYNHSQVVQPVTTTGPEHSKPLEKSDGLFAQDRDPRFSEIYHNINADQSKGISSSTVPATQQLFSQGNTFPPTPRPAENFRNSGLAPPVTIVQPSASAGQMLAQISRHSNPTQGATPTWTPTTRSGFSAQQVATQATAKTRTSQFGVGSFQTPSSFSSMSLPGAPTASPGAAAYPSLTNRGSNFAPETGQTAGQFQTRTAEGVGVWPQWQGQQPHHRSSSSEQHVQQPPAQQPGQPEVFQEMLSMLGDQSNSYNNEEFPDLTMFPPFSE

B1: LexAMOP4 (other)
chain: MKALTARQQEVFDLIRDHISQTGMPPTRAEIAQRLGFRSPNAAEEHLKALARKGVIEIVSGASRGIRLLQEEEEGLPLVGRVAAGEPLLAQQHIEGHYQVDPSLFKPNADFLLRVSGMSMKDIGIMDGDLLAVHKTQDVRNGQVVVARIDDEVTVKRLKKQGNKVELLPENSEFKPIVVDLRQQSFTIEGLAVGVIRNGDWLMDEDEKDRAKRASRNKSEKKRRDQFNVLIKELSSMLPGNTRKMDKTTVLEEVIGFLQKHNEVSAQTEICDIQQDWKPSFLSNEEFTQLMLEALDGFIIAVTTDGSIIYVSDSITPLLGHLPSDVMDQNLLNFLPEQEHSEVYKILSSHMLVTDSPSPEYLKSDGDLEFYCHLLRGSLNPKEFPTYEYIKFVGNFRSYNNVPSPSCNGFDNTLSRPCRVPLGKEVCFIATVRLATPQFLKEMCIVDEPLEEFTSRHSLEWKFLFLDHRAPPIIGYLPFEVLGTSGYDYYHIDDLELLARCHQHLMQFGKGKSCCYRFLTKGQQWIWLQTHYYITYHQWNSKPEFIVCTHSVVSYADVRVERRQELA
notes: range 1-202; also called LexAbHLH-PAS fusion of MOP4; MOP4 bait plasmid
**Q.** Does B1 bind [1]?
**A.** no binding

**Q.** Does B1 bind [2]?
**A.** no binding
